From PMC5614712 (Biochemistry and Biophysics Reports, 2017)

Molecular target: the molecule itself
Assay: crystal structure

B1: Y93H ttCK (uridine-cytidine kinase TTHA0578 of Thermus thermophilus HB8, Tyr93 replaced by His) (enzyme)
chain: MSAPKPFVIGIAGGTASGKTTLAQALARTLGERVALLPMDHYYKDLGHLPLEERLRVNYDHPDAFDLALYLEHAQALLRGLPVEMPVYDFRAHTRSPRRTPVRPAPVVILEGILVLYPKELRDLMDLKVFVDADADERFIRRLKRDVLERGRSLEGVVAQYLEQVKPMHLHFVEPTKRYADVIVPRGGQNPVALEMLAAKALARLARMGAA
stoichiometry N: 4
